Measurements published in patent publication US20240262869A1.
Where “and” joins values, the source holds several entries; their conditions need not be identical. Equal values may be shown once. Read-outs that look alike come from different tables or passages of the source.

Assays:
[1] = target: neutralizing antibody CR3022
[2] = target: neutralizing antibody CR3022; experiment: SPR, immobilized CR3022
ACE2-hFc (human) [3] = target: ACE2-hFc (human) (UniProt Q9BYF1)
ACE2-hFc (human) [4] = target: ACE2-hFc (human) (UniProt Q9BYF1); remark: listed apart in the source
ACE2-hFc (human) [5] = target: ACE2-hFc (human) (UniProt Q9BYF1); remark: listed apart in the source
[6] = target: neutralizing antibody CR3022; remark: listed apart in the source
[7] = target: neutralizing antibody CR3022; experiment: SPR, CR3022 captured on Protein G, tagless pInCV02R as analyte (FIG. 11D)
[8] = target: neutralizing antibody CR3022; remark: listed apart in the source
[9] = target: neutralizing antibody CR3022; experiment: SPR (ProteOn XPR36), CR3022 captured on Protein G
ACE2-hFc (human) [10] = target: ACE2-hFc (human) (UniProt Q9BYF1); remark: listed apart in the source
[11] = target: neutralizing antibody CR3022; remark: listed apart in the source

Chain of ACE2-hFc (human) (Q9BYF1 18-740 limits assumed): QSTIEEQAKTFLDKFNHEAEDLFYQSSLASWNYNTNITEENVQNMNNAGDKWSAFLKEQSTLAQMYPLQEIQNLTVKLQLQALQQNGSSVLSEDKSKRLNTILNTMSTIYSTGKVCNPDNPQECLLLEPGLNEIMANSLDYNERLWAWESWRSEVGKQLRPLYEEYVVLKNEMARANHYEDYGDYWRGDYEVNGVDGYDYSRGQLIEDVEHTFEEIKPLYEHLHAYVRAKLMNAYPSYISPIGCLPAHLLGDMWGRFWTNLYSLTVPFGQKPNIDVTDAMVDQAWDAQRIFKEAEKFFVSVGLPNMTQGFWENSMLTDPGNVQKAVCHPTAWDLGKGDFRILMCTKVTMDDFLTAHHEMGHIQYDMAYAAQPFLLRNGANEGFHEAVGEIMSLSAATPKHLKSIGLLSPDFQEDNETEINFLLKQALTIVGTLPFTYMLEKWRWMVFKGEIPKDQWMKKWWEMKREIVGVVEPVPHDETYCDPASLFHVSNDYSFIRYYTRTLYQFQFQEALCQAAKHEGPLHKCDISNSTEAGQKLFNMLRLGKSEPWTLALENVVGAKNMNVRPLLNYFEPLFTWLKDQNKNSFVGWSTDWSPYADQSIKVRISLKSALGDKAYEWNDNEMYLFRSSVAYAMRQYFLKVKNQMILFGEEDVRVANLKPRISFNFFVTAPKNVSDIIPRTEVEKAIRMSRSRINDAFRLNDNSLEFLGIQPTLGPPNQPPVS

In the case of “mInCV29R (SARS CoV-2 RBD with GlyIZ at C-terminal and EIS at the N-terminal) (ligand)”, the Kd [1] is reported as 4.8 nM, the koff [1] is reported as 0.00097 s⁻¹ and the kon [1] is reported as 200000 M⁻¹ s⁻¹. For the same substance, the Kd [2] was 3 nM and 5 nM.

With “mInCV21R (SARS CoV-2 hCMP-RBD) having EIS at the N-terminal (ligand; other documents disagree on this pair)” the Kd (ACE2-hFc (human) [3]) was under 1 nM, the Kd (ACE2-hFc (human) [4]) was 0.21 nM and the koff (ACE2-hFc (human) [4]) was 8.2e-05 s⁻¹. The kon (ACE2-hFc (human) [4]) was 400000 M⁻¹ s⁻¹ and the kon (ACE2-hFc (human) [5]) was 200000 M⁻¹ s⁻¹.

With “pInCV02R (SARS CoV-2 RBD N-1 (332-532)) (from UniProt P0DTC2 332-532) (ligand)” the Kd [6] was 29.5 nM and the Kd [7] was 30 nM.

For “mInCV26R (SARS CoV-2 RBD with hCMP at the C-terminal and EIS at the N-terminal) (ligand)”, the kon [1] was 480000 M⁻¹ s⁻¹.

“mInCV21R (SARS CoV-2 hCMP-RBD) having EIS at the N-terminal (ligand)” showed a Kd [8] of under 1 nM and a kon [1] of 310000 M⁻¹ s⁻¹.

Work on “mInCV01R (SARS CoV-2 RBD) having EIS at the N-terminal (from UniProt P0DTC2 331-532) (ligand)” yielded a Kd [9] of 1.3 nM.

“mInCV29R (SARS CoV-2 RBD with GlyIZ at C-terminal and EIS at the N-terminal) (ligand; other documents disagree on this pair)” gave a Kd (ACE2-hFc (human) [5]) of 3 nM, a koff (ACE2-hFc (human) [5]) of 0.0004 s⁻¹ and a kon (ACE2-hFc (human) [5]) of 130000 M⁻¹ s⁻¹.

“mInCV26R (SARS CoV-2 RBD with hCMP at the C-terminal and EIS at the N-terminal) (ligand; other documents disagree on this pair)” gave a kon (ACE2-hFc (human) [5]) of 360000 M⁻¹ s⁻¹.

“MsDPS2-SpyTag-mRBD-SpyCatcher conjugate (other; other documents disagree on this pair)” gave a kon (ACE2-hFc (human) [10]) of over 1e+06 M⁻¹ s⁻¹ and a kon (ACE2-hFc (human) [5]) of 2.3e+06 M⁻¹ s⁻¹.

MsDPS2-SpyTag-mRBD-SpyCatcher conjugate showed a kon [11] of over 1e+06 M⁻¹ s⁻¹ and a kon [1] of 4.2e+06 M⁻¹ s⁻¹.
